Test results from patent US20230051847A1 (Johns Hopkins, published 2023).
Like-named read-outs stand apart in the source and are kept apart here.

B1: L2-U scDb (bispecific antibody)
chain: DIQMTQSPSSLSASVGDRVTITCRASQDVNTAVAWYQQKPGKAPKLLIYSASFLYSGVPSRFSGSRSGTDFTLTISSLQPEDFATYYCQQAVSYPWTFGQGTKVEIKGGGGSEVQLQQSGPELVKPGASMKISCKASGYSFTGYTMNWVKQSHGKNLEWMGLINPYKGVSTYNQKFKDKATLTVDKSSSTAYMELLSLTSEDSAVYYCARSGYYGDSDWYFDVWGAGTTVTVSSGGGGSGGGGSGGGGSDIQMTQTTSSLSASLGDRVTISCRASQDIRNYLNWYQQKPDGTVKLLIYYTSRLHSGVPSKFSGSGSGTDYSLTISNLEQEDIATYFCQQGNTLPWTFAGGTKLEIKGGGGSEVQLVESGGGLVQPGGSLRLSCAASGFNISSSGIHWVRQAPGKGLEWVAMVYGGSGYTNYADSVKGRFTISADTSKNTAYLQMNSLRAEDTAVYYCSRWAHYSAYMDYWGQGTLVTVSSHHHHHH
notes: also called L2 single chain diabody; H/K/N RAS Q61L(55-64)-A1 cl.2 UCHT1 scDb
B2: R6-U scDb (bispecific antibody)
chain: DIQMTQSPSSLSASVGDRVTITCRASQDVNTAVAWYQQKPGKAPKLLIYSASFLYSGVPSRFSGSRSGTDFTLTISSLQPEDFATYYCQQYSNYPLTFGQGTKVEIKGGGGSEVQLQQSGPELVKPGASMKISCKASGYSFTGYTMNWVKQSHGKNLEWMGLINPYKGVSTYNQKFKDKATLTVDKSSSTAYMELLSLTSEDSAVYYCARSGYYGDSDWYFDVWGAGTTVTVSSGGGGSGGGGSGGGGSDIQMTQTTSSLSASLGDRVTISCRASQDIRNYLNWYQQKPDGTVKLLIYYTSRLHSGVPSKFSGSGSGTDYSLTISNLEQEDIATYFCQQGNTLPWTFAGGTKLEIKGGGGSEVQLVESGGGLVQPGGSLRLSCAASGFNVFYGSMHWVRQAPGKGLEWVAFIGPDSTYTYYADSVKGRFTISADTSKNTAYLQMNSLRAEDTAVYYCSRDLGSAYAMDYWGQGTLVTVSSHHHHHH

How the values were obtained:
RAS Q61WT[55-64] pHLA-A1 [1] = biological target: T1, RAS Q61WT[55-64] pHLA-A1 (human); assay: ELISA, scDb at 10 nM on titrated biotinylated pHLA-A1 on streptavidin plate; protein L, anti-protein L HRP
T1 construct: also called Q61WT pHLA-A1; H/K/N RAS WT(55-64) peptide on HLA-A1

[2] = biological target: T2, CHD4 peptide (…) on HLA-A1 (human); assay: co-culture of peptide-pulsed SigM5 cells with T cells and L2-U scDb; IFNγ release
T2 construct: whole, on cells; on peptide-pulsed SigM5 cells
Procedure: (A) Each amino acid of the G12V peptide was systematically changed to the other 19 amino acids. T2A3 cells were pulsed with 10 μM of the G12V peptide library. […] Cells were incubated for 24 hour and assayed for secreted IFNγ. […] Cells were incubated for 24 hours and assayed for secreted IFNγ. […] Cells were incubated for 24 hours and assayed for secreted IFNγ.
The library of peptides was generated by systematically substituting each amino acid of the original peptides with the other 19 amino acids. […] Recognition of the variant peptides was evaluated through IFNγ release (FIG. 44, A and B, FIG. 63, A and B). […] Next, using a 20% cognate peptide reactivity as a cutoff for permissive amino acids at each position, decamer binding motifs were generated for each candidate target peptide (Materials and Methods).

RAS Q61WT[55-64] pHLA-A1 [3] = biological target: T1, RAS Q61WT[55-64] pHLA-A1; assay: ELISA, scDb at 10 nM on titrated biotinylated pHLA-A1 on streptavidin plate; protein L, anti-protein L HRP; remark: listed apart in the source

Row | Binder | binding result (RAS Q61WT[55-64] pHLA-A1 [1]) | binding result [2] | binding result (RAS Q61WT[55-64] pHLA-A1 [3])
1 | B1 | no binding (tested: 10 ug/mL coated pHLA-A1, scDb at 10 nM) | no binding (tested: 1 nM scDb) | –
2 | B2 | – | – | no binding (tested: 10 ug/mL coated pHLA-A1, scDb at 10 nM)
